In patent publication US12404345B2, “Humanized antibodies against iRHOM2” (SCIRHOM GMBH, priority 2021, dated 2025):

Tested on: LPS-induced release of endogenous TNFα
Assay: Mouse model for septic shock, LPS-induced TNFα release in serum of genetically humanized mice
Format: in vivo
Conditions: antibody 250 μg/kg in 200 μL PBS injected 1h before LPS 50 μg per mouse; serum 2h after LPS
Description: In the following study, ELISA-based TNFα release assays were performed to verify the inhibitory effects of the antibodies of the invention on LPS-induced release of endogenous TNFα in a mouse model for septic shock. The experiment was conducted using genetically humanized mice, in which parts of the mouse genomic iRhom2 DNA (exons which encode for the antibody binding site) were replaced by the corresponding human genomic DNA sequences. All animal experiments were approved by the Institutional Animal Care and Use Committee of the Hospital for Special Surgery and Weill Cornell Medicine.
On day 1, one group of mice was injected with the antibodies of the invention at a concentration of 250 μg/kg in 200 μL PBS. A second group was injected with the same volume of PBS only (200 μl PBS per mouse). 1h later all mice were subjected to an injection of LPS (Sigma, USA) at a concentration of 50 μg/200 μL per mouse (250 ng/μL). All mice were closely monitored and euthanized after 2h by CO2 inhalation. […]
For measuring TNFα release, Mouse TNF-α Uncoated ELISA Kit (Invitrogen, USA) was used. […] The color reaction was stopped by the addition of 100 μl 2N sulfuric acid (Sigma, USA) and the ELISA plate was read at the wavelength of 450 nm using a Multiskan Titertek Plate reader (VWR, USA).

B1: 42-B-02: humanized antibody binding human iRhom2; HCVD SEQ ID NO 33, LCVD SEQ ID NO 37 (antibody, V domains shown)
VH: QVTLRESGPALVKPTQTLTLTCTFSGFSLSTFGRGVGWIRQPPGKALEWLAHIWWDDEKYYNSALKSRLTISKDTSKNQVVLTITNMDPVDTATYYCARIQNYGSNYWYFDVWGQGTLVTVSS
VL: AIQLTQSPSSLSASVGDRVTITCRASSRISYMFWYQQKPGKAPKVLIYDTSNLASGVPSRFSGSGSGTDYTLTISSLQPEDFATYYCQQWNSYPLTFGQGTKLEIK
modifications: antibody sequences
LPS-induced release of TNFα in serum of genetically humanized mice, percent release (buffer treated control animals set to 100%): 17.3%
